Data reported in patent publication US6605426B1, “Compounds, methods of screening, and in vitro and in vivo uses involving anti-apoptotic genes and anti-apoptotic gene products” (priority 1998, dated 2003).

B1: pUL36AD169-early: pUL36 of an early (pre-1982) passage of HCMV strain AD169; Cys131 (protein)
chain: MDDLRDTLMAYGCIAIRAGDFNGLNDFLEQECGTRLHVAWPERCFIQLRSRSALGPFVGKMGTVCSQGAYVCCQEYLHPFGFVEGPGFMRYQLIVLIGQRGGIYCYDDLRDCVYELAPTMKDFLRNGFRHCDHFHTMRDYQRPMVQYDDYWNAVMLYRGDVESLSAEVTKRGYASYTIDDPFDECPDTHFAFWTHNTEVMKFKETSFSVVRAGGSIQTMELMIRTVPRITCYHQLLGALGHEVPERKEFLVRQYVLVDTFGVVYGYDPAMDAVYRLAEDVVMFTCVMGKKGHRNHRFSGRREAIVRLEKTPTCQHPKKTPDPMIMFDEDDDDELSLPRNVMTHEEAESRLYDAITENLMHCVKLVTTDSPLATHLWPQELQALCDSPALSLCTDDVEGVRQKLRARTGSLHHFELSYRFHDEDPETYMGFLWDIPSCDRCVRRRRFKVCDVGRRHIIPGAANGMPPLTPPHVYMNN
B2: pUL37Smyc: pUL37S fused at its C-terminus with a c-myc-epitope tag; constitutively expressed in HeLa/UL37x1#3 cells (protein)
chain: MSPVYVNLLGSVGLLAFWYFSYRWIQRKRLEDPLPPWLRKKKACALTRRSRHRLRRQHGVIDGENSETERSVDLVAALLAEAGEESVTEDTEREDTEEEREDEEEENEARTPEVNPIDAEGLSGLAREACEALKKALRRHRFLWQRRQRARMLQHNGPQQSHQ

Tests used:
[1] = molecular target: T1, full-length pro-caspase 8 (Homo sapiens, UniProt Q14790); experiment: Co-precipitation in co-transfected 293T cells (anti-HA IP, anti-myc blot); type: binding; settings: HA-tagged pro-caspase 8
T1 construct: HA-tagged full-length pro-caspase 8 (lanes 5 and 6); expressed in transfected cells; host or cells: 293T cells co-transfected with pUL36AD169-earlymyc or pUL36AD169-ATCCmyc
T1 sequence (Q14790 whole entry): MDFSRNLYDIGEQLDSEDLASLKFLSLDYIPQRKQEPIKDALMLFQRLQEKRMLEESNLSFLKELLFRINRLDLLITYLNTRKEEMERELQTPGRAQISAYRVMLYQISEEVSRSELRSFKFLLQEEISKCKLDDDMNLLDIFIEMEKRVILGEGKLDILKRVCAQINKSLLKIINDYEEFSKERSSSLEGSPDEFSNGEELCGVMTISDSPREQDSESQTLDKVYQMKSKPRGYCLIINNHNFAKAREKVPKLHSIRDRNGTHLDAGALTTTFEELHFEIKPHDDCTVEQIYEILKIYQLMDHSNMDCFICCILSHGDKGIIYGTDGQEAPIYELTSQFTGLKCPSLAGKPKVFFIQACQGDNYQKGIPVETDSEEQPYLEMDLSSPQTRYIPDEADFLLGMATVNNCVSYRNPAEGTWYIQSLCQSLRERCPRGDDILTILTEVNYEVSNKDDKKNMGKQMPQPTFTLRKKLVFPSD
Text: (§1) Pro-caspase 8 was detected on the pUL36-containing beads (lane 4), but not on the control beads (lane 2), while the lysates from all these cells contained similar amounts of pro-caspase 8 (compare lanes 1 and 3). […] To test this hypothesis, 293T cells were co-transfected with pUL36AD169-earlymyc and with a truncated pro-caspase 8, containing only its HA-tagged pro-domain region. pUL36AD169-earlymyc is expressed by a fusion gene comprising a UL36 ORF isolated from a pre-1982 passage of CMVAD169 and the carboxy-linked myc epitope tag. The cells were lysed as above, and anti-HA antibody was used to immunoprecipitate the caspase 8 pro-domain. Anti-myc antibodies were then used to probe a Western blot for the inclusion of pUL36 with the immunoprecipitated material. Control cells were transfected with pUL36AD169-earlymyc with either the empty vector (negative control), or with HA-tagged pro-caspase 8 (positive control). Additional cells were co-transfected with the non-functional mutant pUL36AD169-ATCCmyc with either the HA-pro-domain, the empty vector or HA-pro-caspase 8.

pro-domain of caspase 8 = molecular target: T2, pro-domain of caspase 8 (Homo sapiens, UniProt Q14790); experiment: as above; type: binding; settings: HA-tagged pro-domain
T2 construct: a truncated pro-caspase 8, containing only its HA-tagged pro-domain region; expressed in transfected cells; host or cells: 293T cells co-transfected with pUL36AD169-earlymyc or pUL36AD169-ATCCmyc
T2 sequence (Q14790 1-216 limits assumed): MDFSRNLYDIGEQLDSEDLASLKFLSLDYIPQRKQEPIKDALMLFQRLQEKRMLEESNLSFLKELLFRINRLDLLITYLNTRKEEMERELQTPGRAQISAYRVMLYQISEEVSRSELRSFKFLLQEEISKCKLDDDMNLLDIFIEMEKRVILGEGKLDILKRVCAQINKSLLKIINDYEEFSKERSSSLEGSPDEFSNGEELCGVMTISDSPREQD
Text: as §1

HeLa cells [2] = experiment: Transient transfection apoptosis assay in HeLa cells (anti-Fas antibody+CHX or TNF-α+CHX); type: cell-based, human; settings: transiently transfected HeLa cells; anti-Fas antibody+CHX 24 h; surviving cells scored
Method: Tumor necrosis factor receptor 1 (TNF-R1)-mediated apoptosis was induced by exposure of HeLa and MRC-5 cells to tumor necrosis factor-α (TNF-α) (Sigma, 10-60 ng/mL)+CHX (10-30 μg/mL). Fas-mediated apoptosis was induced by exposure of cells to an anti-Fas antibody (Coulter, 7C11 antibody at 0.2-4 μg/mL)+CHX (10-30 μg/mL). The degree of cell death was determined by the visual scoring of surviving cells, in representative fields, under a phase microscope. A similar degree of cell death occurred in fibroblasts when examined 5 to 28 h after the start of exposure, or a similar degree of cell death occurred in HeLa cells when examined 9-28 h after the start of exposure. Further, a similar degree of cell death for a given reagent was produced when any concentration within the range indicated above was used.
The degree of cell death in cells transfected with an indicator plasmid expressing E. coli β-galactosidase was determined by either a β-galactosidase ELISA (Boehringer Mannheim), in accordance with the manufacturer's recommendations, or by visually scoring, under a microscope, positive blue cells, expressing β-galactosidase, after staining them with X-gal.
HeLa cells were transiently co-transfected with an expression plasmid vector, pME18S, carrying a polynucleotide sequence encoding IE1 or IE2 (FIG. 5, “IE1” and “IE2,” respectively), and a vector carrying the β-galactosidase gene (pCMVβ, Clontech). As a positive control, HeLa cells were transiently co-transfected with pCMVβ and a vector carrying a polynucleotide sequence encoding an anti-apoptotic polypeptide, such as the adenovirus E1B 19K or baculovirus p35.
Expression of IE1 (approx. 72 kDa) and IE2 (approx. 86 kDa) in the transfected HeLa cells was confirmed by Western blot analysis, by immunofluorescence visually examined under a fluorescence microscope, and by transactivation activity which led to an elevation of the vector-CMV-promoter-driven β-galactosidase expression which was increased 2- to 5-fold, as measured by a β-galactosidase ELISA (data not shown). Apoptosis was induced by incubating the transfected cells for 24 h with either TNF-α+CHX, or anti-Fas antibody+CHX. The surviving cells were stained with X-gal, a chromogenic substrate of β-galactosidase, and then the blue-stained cells were scored (FIG. 5).
To identify HCMV genes that can suppress apoptosis induced by Fas-ligation, the present inventors established a transient transfection assay in HeLa cells. The HeLa cells can be transfected at much higher efficiency than MRC-5 cells and are similar in their sensitivity towards anti-Fas antibody and TNF-α treatment. Enhanced survival of HeLa cells following anti-Fas antibody+CHX treatment was detected by elevated β-galactosidase (β-gal) levels produced by a transfected β-gal marker plasmid.
The deletion mutants were transiently expressed in HeLa cells, cultured in DMEM supplemented with 10% fetal bovine serum, and assayed for their ability to block Fas- or TNF-R1-mediated apoptosis. Transfections and apoptosis assays were performed as previously described (Goldmacher et al., 1999). Briefly, cells were transiently transfected with the expression vectors (purified with a Qiagen plasmid purification kit) using SuperFect transfection reagent (Qiagen) in accordance with the manufacturer's protocol. After 24 hours, cells were exposed to anti-Fas 7C11 antibody (Coulter, 0.5 μg/ml)+cyclohexamide (Sigma, 10 μg/ml) for 24 hours.
A genomic DNA library was cloned into pZeoSV2(+) plasmid (Invitrogen). Ten cosmids, pCM1007, pCM1015, pCM1017, pCM1029, pCM1035, pCM1039, pCM1040, pCM1052, pCM1058, and pCM1072, covering the AD169 genome (Fleckenstein et al., 1982, which is incorporated herein by reference), and pON2601 Toledo cosmid (Cha et al., 1996, which is incorporated herein by reference) containing unique HCMV sequences, were mixed in equal amounts and partially digested with Sau3AI (New England Biolabs, Beverly, Mass.). […]

HeLa/UL37x1#3 cells = experiment: Dominant-negative assay: pUL37S deletion mutants in HeLa/UL37x1#3 cells, β-galactosidase ELISA; type: cell-based, human; settings: HeLa/UL37S #3 cells transfected with the empty vector; anti-Fas plus cyclohexamide 24 h
Method: 24 h after co-transfection, the cells were either exposed for an additional 24 h to anti-Fas antibody, in the presence of cyclohexamide (FIGS. 11A and 11B, closed bars) or left untreated (FIGS. 11A and 11B, open bars). The surviving cells were than quantified by determining the β-galactosidase levels with a β-galactosidase ELISA (Boehringer Mannheim). […] The control HeLa/pcDNA3-A cells were sensitive to Fas-mediated apoptosis, and this sensitivity was not affected by the expression of the deletion mutants.
Apoptosis was induced in the cell line HeLa/UL37x1#3 (HeLa cells transfected with UL37x1, clone No. 3), that constitutively expresses pUL37Smyc and is resistant to apoptosis, through the addition of anti-Fas antibodies and cyclohexamide to the culture medium. To identify dominant-negative mutants, HeLa/UL37x1#3 cells were co-transfected with the lacZ (encoding β-galactosidase) indicator plasmid vector, together with either an expression vector for a pUL37S deletion mutant or the empty plasmid vector, pcDNA3. […]
One day after the transfection, cells were treated with anti-Fas antibody plus cyclohexamide for 24 h. Cell survival was then assessed by measuring spectrophotometrically the level of β-galactosidase expression, as described in Example 1. […]

HeLa cells [3] = experiment: Apoptosis resistance of HeLa clones stably expressing pUL37Smyc; type: cell-based, human
Text: In a preferred embodiment, HeLa clones continuously (as opposed to transiently) express the version of pUL37s tagged with the C-terminal myc-peptide (amino acids 408-421 within the carboxy terminal domain of human c-Myc) generated by stable transfection with either an expression plasmid containing UL37S alone, or in a mixture with an expression plasmid coding for puromycin-N-acetyl-transferase such as pPUR (Clontech, Palo Alto, Calif.). Following the transfection, drug-resistant clones are selected in medium containing G418 (0.7 mg/mL) or in medium containing puromycin (1 μg/ml), and then the clones are screened for the expression of pUL36-myc-tagged and pUL37S-myc-tagged polypeptides, respectively, by Western analysis with 9E10 anti-Myc antibody (Santa Cruz Biotechnology, Inc., Santa Cruz, Calif.). In using this approach, the present inventors isolated four clones that expressed pUL37S-myc (designated as HeLa/UL37S). These clones were then used to conduct further studies reported in Example 9. Also, four G418-resistant clones of HeLa cells stably transfected with pcDNA3/myc (empty vector, control) were isolated by similar procedures, two with G418 (HeLa/G418) and two with puromycin (HeLa/puro), and used as a negative control in the Western blot analysis and experiments studying the anti-apoptotic activity of the clones.
Three transfected G418-resistant HeLa clones were isolated that stably express pUL37S myc (designated HeLa/UL37×1myc #3, #8, and #N1), as detected by Western blot analysis with the 9E10 anti-myc antibody (Evan et al., 1985, which is incorporated herein by reference) (FIG. 8A). In parallel, three HeLa clones were isolated following stable transfections with the pcDNA3 vector alone (designated HeLa/pcDNA3-A, -B, and —C). […] While virtually all of the HeLa/pcDNA3-A control cells died following an overnight exposure to anti-Fas antibody+CHX or TNF-α+CHX, only a small fraction of the pUL37Smyc-expressing cells underwent apoptosis after an overnight exposure to these agents FIG. 8B). Moreover, most of the pUL37Smyc-expressing cells continued to survive for more than 3 days of culturing in the presence of either anti-Fas antibody+CHX or TNF-α+CHX.
The present inventors tested whether pUL37S can inhibit apoptosis triggered by other stimuli. […] Thus, pUL37S is a broadly acting inhibitor of apoptosis that can inhibit or diminish cell death induced by a variety of cytotoxic agents.

Row | Molecule | co-precipitation with full-length pro-caspase 8 [1] | co-precipitation with the pro-domain of caspase 8 (pro-domain of caspase 8) | anti-apoptotic activity: protection against Fas-mediated apoptosis (HeLa cells [2]) | β-gal signal compared to untreated cells (HeLa/UL37x1#3 cells) | resistance to apoptosis induced by doxorubicin (HeLa cells [3]; doxorubicin 1, 3, and 6 μM, 24 h, trypan blue exclusion) | duration of survival in culture with apoptotic stimulus (HeLa cells [3]; in the presence of either anti-Fas antibody+CHX or TNF-α+CHX) | resistance to TNF-R1-mediated apoptosis (HeLa cells [3]; stable HeLa clones, TNF-α+CHX) | resistance to Fas-mediated apoptosis (HeLa cells [3]; stable HeLa clones, anti-Fas antibody+CHX)
1 | B1 | co-precipitated | co-precipitated | effective death suppressors |  |  |  |  | 
2 | B2 |  |  |  | about 40% | substantially more resistant | more than 3 days | resistant | resistant
